Experimental data: patent US20070231897A1, “Induction of Insulin Secreting Cell” (KYOTO UNIVERSITY, priority 2004, published 2007)

Tested on: pancreatic acinar cells
Assay: Effect of growth factors on insulin-positive cell induction in main culture of pancreatic acinar cells
Assay type: cell-based, mouse
Settings: day 7 of culture; EGF 20 ng/ml, HGF, FGF7 and FGF10 10 ng/ml, GLP-1 30 ng/ml; rank among growth factors (FIG. 8B)
Experimental: Eight-week old male mice (C57B1/6Cr Slc)(Japan SLC, Inc.: Hamamatsu, Japan) were anesthetized with 50 mg/kg of Nembtal (Dainippon Pharma Co., Ltd.: Osaka, Japan) and subjected to laparotomy. The choledoch duct was ligated near the position where it opens to the duodenum. Using a 27G winged needle (Terumo Corporation: Tokyo, Japan), 2-3 ml of Hank's buffer containing 0.05% collagenase P (Roche: Basel, Switzerland) and 10% fetal bovine serum was infused from the liver side. The pancreas, now swollen, was extracted and digested in 5 ml of Hank's buffer per pancreas for 18 minutes at 37° C. The digested pancreas then was made to pass through a 14G indwelling needle in both directions twice to disperse the pancreatic cells, which washed well with Hank's buffer containing 0.1% bovine serum albumin (Sigma: Saint Louis, Mo., USA). The pancreatic cells thus obtained were suspended in a mixed solution (solution A) consisting of 8.3% Ficoll 400 (Amersham Bioscience: Uppsala, Sweden) and 16.7% Conray 400 (Daiichi Pharmaceutical, Tokyo, Japan), and after a 87.5%-diluted solution of solution A and then a 50%-diluted solution of solution A were placed on it in the order, centrifuged (2,000 rpm, 10 min). […]

B1: fibroblast growth factor 10 (protein, UniProt O15520 38-208, looked up)
Fibroblast growth factor 10: QALGQDMVSPEATNSSSSSFSSPSSAGRHVRSYNHLQGDVRWRKLFSFTKYFLKIEKNGKVSGTKKENCPYSILEITSVEIGVVAVKAINSNYYLAMNKKGKLYGSKEFNNDCKLKERIEENGYNTYASFNWQHNGRQMYVALNGKGAPRRGQKTRRKNTSAHFLPMVVHS
notes: fibroblast growth factor 10 (R&D Systems), growth factor added to the culture medium
proportion of insulin-positive cells: this was followed by FGF10 and HGF
